In US10973762B2, “Active-targeting-type polymer derivative, composition containing said polymer derivative, and uses of said polymer derivative and said composition” (Nippon Kayaku Kabushiki Kaisha, priority 2016, dated 2021):

Columns and labels:
integrin αVβ3 = target: T1, integrin αVβ3 (Mus musculus, UniProt O54890+P43406); test: Integrin binding assay (inhibition of biotinylated vitronectin binding); settings: dilution series, absorbance at 450 nm
T1 construct: purchased R&D Systems, Inc
T1 sequence (P43406 31-988 limits assumed): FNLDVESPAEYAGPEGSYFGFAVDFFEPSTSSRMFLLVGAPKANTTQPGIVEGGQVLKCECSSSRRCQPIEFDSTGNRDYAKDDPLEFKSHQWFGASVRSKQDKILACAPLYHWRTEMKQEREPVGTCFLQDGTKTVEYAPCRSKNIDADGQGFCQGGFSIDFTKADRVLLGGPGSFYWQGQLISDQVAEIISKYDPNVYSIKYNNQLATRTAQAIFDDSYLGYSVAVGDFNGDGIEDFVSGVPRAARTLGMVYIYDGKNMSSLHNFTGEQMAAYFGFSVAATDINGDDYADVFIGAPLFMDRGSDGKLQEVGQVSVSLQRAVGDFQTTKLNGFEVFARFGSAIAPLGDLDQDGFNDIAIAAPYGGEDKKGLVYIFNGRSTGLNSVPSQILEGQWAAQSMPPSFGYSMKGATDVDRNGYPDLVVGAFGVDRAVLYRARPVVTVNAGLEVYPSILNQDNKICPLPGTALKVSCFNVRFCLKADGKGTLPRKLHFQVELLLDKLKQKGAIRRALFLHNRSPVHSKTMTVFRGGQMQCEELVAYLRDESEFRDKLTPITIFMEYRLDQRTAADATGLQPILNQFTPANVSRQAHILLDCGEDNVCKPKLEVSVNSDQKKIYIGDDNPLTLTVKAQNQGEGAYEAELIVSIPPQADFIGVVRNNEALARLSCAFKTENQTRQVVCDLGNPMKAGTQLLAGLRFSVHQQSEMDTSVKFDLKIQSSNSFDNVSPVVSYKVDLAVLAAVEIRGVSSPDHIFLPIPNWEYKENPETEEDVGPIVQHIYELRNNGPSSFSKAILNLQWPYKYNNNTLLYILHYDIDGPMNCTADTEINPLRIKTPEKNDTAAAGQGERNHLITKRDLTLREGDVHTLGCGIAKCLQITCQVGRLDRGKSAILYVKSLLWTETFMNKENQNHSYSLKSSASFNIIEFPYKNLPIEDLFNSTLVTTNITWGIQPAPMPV
T1 sequence (O54890 26-717 limits assumed): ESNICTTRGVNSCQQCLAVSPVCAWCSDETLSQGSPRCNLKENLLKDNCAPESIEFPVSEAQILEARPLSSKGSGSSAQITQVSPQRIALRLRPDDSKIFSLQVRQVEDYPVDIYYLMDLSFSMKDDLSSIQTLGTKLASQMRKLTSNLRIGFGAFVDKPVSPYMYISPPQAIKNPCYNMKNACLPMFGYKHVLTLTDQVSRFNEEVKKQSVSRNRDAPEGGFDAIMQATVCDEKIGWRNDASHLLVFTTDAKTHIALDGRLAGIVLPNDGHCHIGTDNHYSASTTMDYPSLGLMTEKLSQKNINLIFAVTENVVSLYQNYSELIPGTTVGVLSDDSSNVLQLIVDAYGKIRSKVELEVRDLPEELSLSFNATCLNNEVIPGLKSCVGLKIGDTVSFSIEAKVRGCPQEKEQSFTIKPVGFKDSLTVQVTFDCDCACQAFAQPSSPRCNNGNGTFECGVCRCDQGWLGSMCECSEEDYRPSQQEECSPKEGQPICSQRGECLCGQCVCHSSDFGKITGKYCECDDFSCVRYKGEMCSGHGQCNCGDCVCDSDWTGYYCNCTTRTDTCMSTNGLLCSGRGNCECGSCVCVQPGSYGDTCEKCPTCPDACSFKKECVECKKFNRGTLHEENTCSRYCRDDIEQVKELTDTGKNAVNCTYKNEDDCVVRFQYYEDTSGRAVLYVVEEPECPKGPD
Experimental: 100 μL each of 1 μg/mL Recombinant Mouse Integrin alpha V beta 3 Protein (R&D Systems, Inc.) produced with PBS(−) was added to a 96-well Costar high capacity binding plate, and the plate was left to stand overnight at 4° C. to thereby bind integrin αVβ3 to the bottom face of the wells. Subsequently, integrin αVβ3 in the wells was removed by suctioning, and 200 μL of a Blocking/Binding buffer (50 mM Tris HCl at pH 7.4, 100 mM NaCl, 2 mM CaCl2, 1 mM MgCl2, 1 mM MnCl2, 1% BSA) was added to each well. Blocking was performed at an interval of one hour at room temperature.
100 μL of biotinylated vitronectin (1 μg/mL) obtained by biotinylated human recombinant vitronectin (Wako Pure Chemical Industries, Ltd.) was added in advance into each well using Biotin Labeling Kit-NH2 (Dojindo Molecular Technologies, Inc.), and the plate was left to stand at room temperature for 3 hours. Subsequently, the wells were washed three times using 200 μL of Blocking/Binding buffer, and 100 μL of streptavidin-HRP (GE Healthcare) diluted 10,000 times with the Blocking/Binding buffer was added to each well. The mixture was left to stand for one hour at room temperature. The wells were washed two times using 200 μL of the Blocking/Binding buffer. […]
Within 30 minutes after the addition, the absorbance at 450 nm was measured, and the binding ratio of biotinylated vitronectin to integrin αVβ3 was calculated.

[1] = Test Example 4: tissue distribution in kidney (fluorescence of sections); format: in vivo, nude mice; settings: i.v. 5 mg/kg in terms of fluorescent substance
Experimental: (§1) A suspension of cultured cancer cell human glioma U87MG was subcutaneously transplanted on the dorsal sides of nude mice using an injection needle-attached syringe. Example 7, Comparative Example 2, and Comparative Example 3 were dissolved in a 5% glucose injectable solution, and each of the solutions was intravenously administered a single time in an amount of 5 mg/kg in terms of 2-(2-aminoethoxy)-9-(diethylamino)-5H-benzo[a]phenoxazin-5-one.
(§2) After one hour and after 24 hours from the administration, the mice were exsanguinated under isoflurane anesthesia, and frozen embedded sections of extracted tumor and kidney were produced. Fluorescence derived from 2-(2-aminoethoxy)-9-(diethylamino)-5H-benzo[a]phenoxazin-5-one in the administered composition was observed.
(§3) Furthermore, based on those images, the luminance was calculated using Image-Pro Premier (Media Cybernetics, Inc.), and the values of luminance of tumor tissue sections are shown in FIG. 9, while the values of luminance of kidney tissue sections are shown in FIG. 11.

[2] = Average particle size, single nanoparticle size analyzer IG-1000; format: physicochemical
Experimental: The measurement of the average particle size of the compositions including block copolymers of Examples 3 to 10 and Comparative Examples 1 to 6 was carried out using a single nanoparticle size analyzer, IG-1000, manufactured by Shimadzu Corp. (measurement temperature: 25° C., light intensity at t=0: 100 to 200).
Regarding a sample for measuring the average particle size, a solution produced to have a concentration of 2 mg/mL or 5 mg/mL in terms of the composition weight and filtered through a 0.45-μm membrane filter, was used.

[3] = Test for drug releasability into phosphate buffer solution; format: physicochemical; settings: phosphate buffer solution pH 7.4, 37° C., 6 hours, 1.0 mg/mL, absence of enzyme
Experimental: Example 7, Example 8, and Comparative Example 3 were respectively dissolved in a phosphate buffer solution (pH 7.4) at a concentration of 1.0 mg/mL in terms of the composition weight, and the solutions were left to stand at a constant temperature of 37° C. The amount of 7-ethyl-10-hydroxycamptothecin (EHC) released was measured over time by HPLC, and the proportion of the amount of EHC released with respect to the total amount of EHC in the compound used was determined.

human glioma U87MG = test: Test Example 4: tissue distribution in tumor (fluorescence of sections); format: in vivo, nude mice; settings: one hour after i.v. administration, 5 mg/kg in terms of fluorescent substance
Experimental: as §1, §2, §3

Substance | inhibition of binding of vitronectin and integrin αVβ3 (integrin αVβ3) | distribution of fluorescence in kidney [1] | average particle size ([2]; 2 mg/mL) | EHC release (proportion of EHC released with respect to total EHC) [3] | distribution of fluorescence in tumor (human glioma U87MG) | average particle size ([2]; 5 mg/mL)
4-phenyl-1-butanol-bonded and 2-(2-aminoethoxy)-9-(diethylamino)-5H-benzo[a]phenoxazin-5-one-bonded product of polyethylene glycol (10 kilodaltons)-polyglutamic acid (21.0 polymerizations) block copolymer [Comparative Example 1] | not recognized |  |  |  |  | 
7-ethyl-10-hydroxycamptothecin (EHC)-bonded and 2-(2-aminoethoxy)-9-(diethylamino)-5H-benzo[a]phenoxazin-5-one-bonded product of polyethylene glycol (2 kilodaltons)-polyglutamic acid (7.59 polymerizations) block copolymer [Comparative Example 3] |  | fluorescence was observed in the blood vessels and the renal tubules | 13 nm | 61% | penetrated into the entire tumor compared to Comparative Example 2 | 
7-ethyl-10-hydroxycamptothecin (EHC)-bonded and 2-(2-aminoethoxy)-9-(diethylamino)-5H-benzo[a]phenoxazin-5-one-bonded product of polyethylene glycol (12 kilodaltons)-polyglutamic acid (22.0 polymerizations) block copolymer [Comparative Example 2] |  | fluorescence was not recognized in areas other than in the blood vessels |  |  |  | 23 nm
